Assay results from paper doi:10.1101/2021.01.26.428356, “Sequence signatures of two IGHV3-53/3-66 public clonotypes to SARS-CoV-2 receptor binding domain” (bioRxiv, 2021).

Target: T1, Fc-tagged receptor-binding domain (RBD) of the SARS-CoV-2 spike (S) protein (SARS-CoV-2, Wuhan-Hu-1 (GenBank …, UniProt P0DTC2))
T1 construct: also called SARS-CoV-2 RBD; SARS-CoV-2 S RBD-Fc; not shown: Fc, C-terminal, kept
Assay: BLI; Octet Red96e; Fc-tagged RBD loaded onto the biosensor (streptavidin biosensors as printed), Fab in solution; 1x PBS pH 7.4, 0.01% w/v BSA, 0.002% v/v Tween 20; 60 s association, 60 s dissociation; 1:1 binding model
Conditions: both partners purified

B1: COVA2-20 Fab, F58 variant (heavy chain Y58F) (Fab, V domains shown)
VH: EVQLVESGGGLIQPGGSLRLSCAASGFTVSSNYMSWVRQAPGKGLEWVSVIYSGGSTFYADSVKGRFTISRDNSKNTLYLQMNSLRAEDTAVYYCASPLLLTPPDYYYYMDVWGKGTMVTVSS
VL: DVVMTQSPSSLSVSVGDRVTITCRASQGIRNDLGWYQQKPGKAPKRLIYAASSLQSGVPSRFSGSGSGTEFTLTISSLQPEDFATYYCLQHNSYLWTFGQGTKLEIK
notes: also called COVA2-20 F58
  binding result: binds

B2: CC12.3 Fab, Y58 variant (heavy chain F58Y) (Fab, V domains shown)
VH: QVQLVESGGGLIQPGGSLRLSCAASGFTVSSNYMSWVRQAPGKGLEWVSVIYSGGSTYYADSVKGRFTISRDNSKSTLYLQMNSLRVEDTAVYYCARDFGDFYFDYWGQGTLVTVSS
VL: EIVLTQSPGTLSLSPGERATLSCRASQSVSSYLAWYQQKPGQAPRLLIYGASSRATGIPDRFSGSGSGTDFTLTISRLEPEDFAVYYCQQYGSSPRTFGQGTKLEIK
notes: also called CC12.3 Y58
  binding result: binds
